Assay results taken from patent US20170232076A1 (SHIRE HUMAN GENETIC THERAPIES, published 2017).

What was measured:
[1] = biological target: T1, cation-independent mannose-6-phosphate receptor (CI-M6PR), as used in the in vitro receptor binding assay …; assay: ELISA, CI-M6PR binding, detection with antibody to human Naglu
[2] = biological target: T1, cation-independent mannose-6-phosphate …; assay: in vitro CI-M6PR binding assay
[3] = biological target: cation-independent mannose-6-phosphate receptor (CI-M6PR) on cells overexpressing CI-M6PR; assay: cellular uptake assay on cells overexpressing CI-M6PR, intracellular Naglu activity read-out

Kd [1] [nM]	Kd [2] [nM]	fold higher affinity than Naglu-SapDC produced in GNPT overexpressing cells [3] [fold]	Binder
32.4			Naglu-LIF fusion protein (produced in HT-1080 cells) (enzyme, N-linked glycosylation sites in the LIF part marked (N); by anti-M6P Western blot not M6P-phosphorylated in any detectable manner when overexpressed alone) not shown
~0.21	0.24	3.6	Naglu-IGFII fusion protein (produced in HT-1080 cells) (enzyme, Purified from conditioned medium) DEAREAAAVRALVARLLGPGPAADFSVSVERALAAKPGLDTYSLGGGGAARVRVRGSTGVAAAAGLHRYLRDFCGCHVAWSGSQLRLPRPLPAVPGELTEATPNRYRYYQNVCTQSYSFVWWDWARWEREIDWMALNGINLALAWSGQEAIWQRVYLALGLTQAEINEFFTGPAFLAWGRMGNLHTWDGPLPPSWHIKQLYLQHRVLDQMRSFGMTPVLPAFAGHVPEAVTRVFPQVNVTKMGSWGHFNCSYSCSFLLAPEDPIFPIIGSLFLRELIKEFGTDHIYGADTFNEMQPPSSEPSYLAAATTAVYEAMTAVDTEAVWLLQGWLFQHQPQFWGPAQIRAVLGAVPRGRLLVLDLFAESQPVYTRTASFQGQPFIWCMLHNFGGNHGLFGALEAVNGGPEAARLFPNSTMVGTGMAPEGISQNEVVYSLMAELGWRKDPVPDLAAWVTSFAARRYGVSHPDAGAAWRLLLRSVYNCSGEACRGHNRSPLVRRPSLQMNTSIWYNRSDVFEAWRLLLTSAPSLATSPAFRYDLLDLTRQAVQELVSLYYEEARSAYLSKELASLLRAGGVLAYELLPALDEVLASDSRFLLGSWLEQARAAAVSEAEADFYEQNSRYQLTLWGPEGNILDYANKQLAGLVANYYTPRWRLFLEALVDSVAQGIPFQQHQFDKNVFQLEQAFVLSKQRYPSQPRGDTVDLAKKIFLKYYPRWVAGSWGAPGGGGGAAAAAGGGGGGAPGGGGGAAAAAGGGGGGAPGGGGGAAAAAGGGGGGAPLCGGELVDTLQFVCGDRGFYFSRPASRVSRRSRGIVEECCFRSCDLALLETYCATPAKSE
	~65		recombinant human Naglu (rhNaglu) produced in HT-1080 cells overexpressing GNPT (enzyme, M6P on N-linked glycans enhanced by co-expression with GNPT, Same polypeptide as rhNaglu; It differs in being co-expressed with GNPT; also called GNPT/rhNaglu; rhNaglu produced using a GNPT overexpressing cell line) DEAREAAAVRALVARLLGPGPAADFSVSVERALAAKPGLDTYSLGGGGAARVRVRGSTGVAAAAGLHRYLRDFCGCHVAWSGSQLRLPRPLPAVPGELTEATPNRYRYYQNVCTQSYSFVWWDWARWEREIDWMALNGINLALAWSGQEAIWQRVYLALGLTQAEINEFFTGPAFLAWGRMGNLHTWDGPLPPSWHIKQLYLQHRVLDQMRSFGMTPVLPAFAGHVPEAVTRVFPQVNVTKMGSWGHFNCSYSCSFLLAPEDPIFPIIGSLFLRELIKEFGTDHIYGADTFNEMQPPSSEPSYLAAATTAVYEAMTAVDTEAVWLLQGWLFQHQPQFWGPAQIRAVLGAVPRGRLLVLDLFAESQPVYTRTASFQGQPFIWCMLHNFGGNHGLFGALEAVNGGPEAARLFPNSTMVGTGMAPEGISQNEVVYSLMAELGWRKDPVPDLAAWVTSFAARRYGVSHPDAGAAWRLLLRSVYNCSGEACRGHNRSPLVRRPSLQMNTSIWYNRSDVFEAWRLLLTSAPSLATSPAFRYDLLDLTRQAVQELVSLYYEEARSAYLSKELASLLRAGGVLAYELLPALDEVLASDSRFLLGSWLEQARAAAVSEAEADFYEQNSRYQLTLWGPEGNILDYANKQLAGLVANYYTPRWRLFLEALVDSVAQGIPFQQHQFDKNVFQLEQAFVLSKQRYPSQPRGDTVDLAKKIFLKYYPRWVAGSW
